Here are results for 24 molecules from US20230176070A1 (published 2023).

Experiment [1] addresses T1, human serum albumin (human, UniProt P02768 25-609).
T1 construct: In the mutant screen wild type HSA came from medium of transfected HeLa cells; also called HSA; wild type HSA
As to the kind of experiment: indirect ELISA, HSA coated.
Procedure: Indirect ELISA was carried out to evaluate the camelid immune response of an antigen and to quantify the relative affinities of antigen-specific Nbs. An antigen was coated onto a 96-well ELISA plate (R&D system) at an amount of approximately 1-10 ng per well in a coating buffer (15 mM sodium carbonate, 35 mM sodium bicarbonate, pH 9.6) overnight at 4° C. The well surface was then blocked with a blocking buffer (DPBS, 0.05% Tween 20, 5% milk) at room temperature for 2 hours. To test an immune response, the immunized serum was serially 5-fold diluted in the blocking buffer. The diluted sera were incubated with the antigen coated wells at room temperature for 2 hours. HRP-conjugated secondary antibodies against llama Fc (Bethyl) were diluted 1:10,000 in the blocking buffer and incubated with each well for 1 hour at room temperature. […] Nbs of both specific binders for test and scramble negative controls were serially 10-fold diluted from 10 μM to 1 μM in the blocking buffer. HRP-conjugated secondary antibodies against His-tag (Genscript) or T7-tag (Thermo) were diluted 1:5,000 or 1:10,000 in the blocking buffer and incubated for 1 hour at room temperature. Three washes with 1x PBST (DPBS, 0.05% Tween 20) were carried out to remove nonspecific absorbance between incubations. After the final wash, the samples were further incubated under dark with freshly prepared w3,3′,5,5′-Tetramethylbenzidine (TMB) substrate for 10 mins at room temperature to develop the signals. After the STOP solution (R&D system), the plates were read at multiple wavelengths (450 nm and 550 nm) on a plate reader (Multiskan GO, Thermo Fisher). A false positive Nb binder was defined if any of the following two criteria was met: i) the ELISA signal can only be detected at a concentration of 10 μM and was under detected at 1 μM concentration. ii) At 1 μM concentration, a pronounced signal decrease (by more than 10-fold) was detected compared to the signal at 10 μM, while there were no signals can be detected at lower concentrations. The raw data was processed by Prism 7 (GraphPad) to fit into a 4PL curve and to calculate logIC50.

Experiment [2] deals with T1, human serum albumin. As to the kind of experiment: SPR, HSA immobilised.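 Also: nanobody analytes injected as dilution series across three log units over CM5 chip with amine-coupled antigen, kinetics fitted by 1:1 Langmuir model, optionally with mass transfer.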
Procedure: (§1) Nb affinity measurement by SPR. Surface plasmon resonance (SPR, Biacore 3000 system, GE Healthcare) was used to measure Nb affinities. Antigen proteins immobilized on the activated CM5 sensor-chip by the following steps. Protein analytes were diluted to 10-30 μg/ml in 10 mM sodium acetate, pH 4.5, and were injected into the SPR system at 5 μl/min for 420 s. The surface of the sensor was then blocked by 1 M ethanolamine-HCl (pH 8.5). For each Nb analyte, a series of dilution (spanning three orders of magnitude) was injected in HBS-EP+ running buffer (GE-Healthcare) containing 2 mM DTT, at a flow rate of 20-30 μl/min for 120-180 s, followed by a dissociation time of 5-20 mins based on dissociation rate. Between each injection, the sensor chip surface was regenerated with the low pH buffer containing 10 mM glycine-HCl (pH 1.5-2.5), or high pH buffer of 20-40 mM NaOH (pH 12-13). The regeneration was performed with a flow rate of 40-50 μl/min for 30 s. The measurements were duplicated and only highly reproducible data was used for analysis. Binding sensorgrams for each Nb were processed and analyzed using BIAevaluation by fitting with 1:1 Langmuir model or 1:1 Langmuir model with mass transfer.
The next experiment concerns the target T2, MBP-PDZ fusion protein (mammalian (so in the source), UniProt P57105 6-100, limits assumed).
T2 construct: domain: PDZ domain; also called MBP fusion PDZ
T2 sequence (looked up): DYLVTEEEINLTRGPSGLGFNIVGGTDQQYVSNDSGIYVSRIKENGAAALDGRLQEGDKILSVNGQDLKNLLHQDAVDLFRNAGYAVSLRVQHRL
The experiment in a line: beads-binding assay, MBP-PDZ-coupled resin.

In experiment [3] the target is T1, human serum albumin. The experiment in a line: SPR, HSA immobilised (legend of FIG. 3I; differs from Table 2).
Procedure: as §1

T1 sequence (P02768 25-609 limits assumed): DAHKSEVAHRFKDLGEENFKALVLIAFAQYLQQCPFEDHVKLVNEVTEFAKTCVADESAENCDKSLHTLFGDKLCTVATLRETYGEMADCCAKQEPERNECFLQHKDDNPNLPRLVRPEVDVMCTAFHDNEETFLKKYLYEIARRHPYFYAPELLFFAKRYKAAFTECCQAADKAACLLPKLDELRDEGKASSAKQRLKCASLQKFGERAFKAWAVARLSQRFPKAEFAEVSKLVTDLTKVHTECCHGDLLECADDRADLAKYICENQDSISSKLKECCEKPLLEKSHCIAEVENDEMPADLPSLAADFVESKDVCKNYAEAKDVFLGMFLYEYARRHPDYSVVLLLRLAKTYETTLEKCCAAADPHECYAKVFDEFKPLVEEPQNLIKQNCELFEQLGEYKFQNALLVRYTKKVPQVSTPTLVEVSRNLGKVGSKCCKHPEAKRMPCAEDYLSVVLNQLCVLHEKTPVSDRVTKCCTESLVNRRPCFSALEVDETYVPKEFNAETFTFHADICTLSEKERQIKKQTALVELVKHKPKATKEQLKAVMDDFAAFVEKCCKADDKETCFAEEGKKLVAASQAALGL
Procedure for MBP-PDZ fusion protein: After Nb induction and cell lysis, the cell lysates were run on SDS-PAGE to estimate Nb expression levels. Recombinant Nbs in the cell lysis were diluted in 1x DPBS (pH 7.4) to a final concentration of ˜5 μM (for GST Nbs) and ˜50 nM (for PDZ Nbs). To test the specific interactions of Nbs with antigens, different antigens were coupled to the CNBr resin. Inactivated or MBP-conjugated CNBr resin was used for control. Antigen coupled resins or control resins were incubated with Nb lysates at 4° C. for 30 mins. The resins were then washed three times with a washing buffer (1x DPBS with 150 mM NaCl and 0.05% Tween 20) to remove nonspecific bindings. Specific antigen bound Nbs were then eluted from the resins by the hot LDS buffer containing 20 mM DTT and ran on SDS-PAGE. The intensities of Nbs on the gel were compared between antigen specific signals and control signals to derive the false positive binding.

B1: H1 (VHH)
VHH: QVQLVESGGGLVQPGGSLRLSCVASGIMFDIYTMRWYRQAPGKQRELVAAITGAGRANYNDDSVKGRFTISRDNAKNTVYLQMNRMKPEDTALYECNTEILGGGPNYWGRGTQVTVSE
For the molecule B1, in the experiment with human serum albumin [1], the “ELISA affinity (LogIC50 (oD450nm))” value was 4.92.

B2: H25 (VHH)
VHH: DVQLVESGGGLVQAGGSLRLSCAASGRTISDYGMAWFRQAPGKEREFVGVITSNSVTTYYADSVKGRFTISRDNTKNTVYLQMISLKPEDTAIYYCAARIPVGFYYNARNYDFWGQGTQVTVSS
In the experiment with human serum albumin [2], B2 returned a Kd of 0.858 nM, a koff of 0.000802 s⁻¹ and a kon of 936000 M⁻¹ s⁻¹. Besides, in the experiment with human serum albumin [1], the “ELISA affinity (LogIC50 (oD450nm))” value is 5.34.

B3: P4 (VHH)
VHH: HVQLVESGGGLVQAGGSLRLSCAAAGRTSSDYAMGWFRQAPGKEREFVSAINWSGISTYYADSVKGRFTISRDNAKNTVHLQMNSLKPEDTAVYYCAAEKLESLRNWHDPLMYDYWGQGTQVTVSE
Regarding B3, the binding result with MBP-PDZ fusion protein was “binds”.

B4: H11 (VHH)
VHH: QVQLVESGGGLVQVGGSLRLSCAASGRTFSNYVMGWFRQAPGKEREFVAYIHWSGSSTSYADSVKGRFTISRDNTKNTMYLQMNSLKPEDTAVYYCTADQYASTLLRAAGEYWGQGTQVTVSS
With B4, in the experiment with human serum albumin [2], the Kd was found to be 0.061 nM, the koff turned out to be 1.55e-05 s⁻¹ and the kon turned out to be 255000 M⁻¹ s⁻¹. Further, the “ELISA affinity (LogIC50 (oD450nm))” value with human serum albumin [1] was 6.27.

B5: H21 (VHH)
VHH: QVQLVESGGGLVQAGGSLRLSCAASGYTSGNDAMGWFRQAPGKEREFVGAIRWSGVSTYYADSVKGRFTISRDGAKNTLYLQMNSLKPEDTAVYYCAAKFTGSAWYGVQKLESTYWDYWGQGTQVTVSS
In the experiment with human serum albumin [2], B5 showed a Kd of 0.266 nM, a koff of 0.000182 s⁻¹ and a kon of 683000 M⁻¹ s⁻¹. Further, in the experiment with human serum albumin [1], the “ELISA affinity (LogIC50 (oD450nm))” value turned out to be 5.63.

B6: H3 (VHH)
VHH: QVQLVESGGGLVQAGGSLRLSCVASGRTFEPFVMGWFRQAPGKEREFVATISWSGGSLSYADSVKGRFTVSRDNAKNTVYLQMNSLKPEDTAVYYCAAAPGVGNYRYTFQYDYWGQGTQVTVSE
In the experiment with human serum albumin [2], B6 gave a Kd of 0.454 nM, a koff of 0.000504 s⁻¹ and a kon of 1.11e+06 M⁻¹ s⁻¹. For the same molecule, the “ELISA affinity (LogIC50 (oD450nm))” value with human serum albumin [1] amounted to 7.

B7: H14 (VHH)
VHH: HVQLVESGGGLVQAGGSLRLSCTASGRTFTPYTMGWFRQAPGKEREFVASILWSGNNRDYADSVKDRFAISRDNAKNTAYLQMNSLKPEDTAVYYCAAGDGLGFYRSVNQYDYWGQGTQVTVSS
As for B7, in the experiment with human serum albumin [2], binding was put at a Kd of 0.0223 nM, the koff is 5.57e-06 s⁻¹ and the kon is 250000 M⁻¹ s⁻¹. Also, the “ELISA affinity (LogIC50 (oD450nm))” value in the experiment with human serum albumin [1] worked out at 5.96. Besides, the koff with human serum albumin [3] worked out at 5.75e-06 s⁻¹.

B8: H7 (VHH)
VHH: DVQLVESGGGSVQAGGSLRLSCAASGGTFSSYAMGWYRQAPGKEREFVSGISWSGSSIDYVDSVKGRFTISRDNAKNTVYLQMNSLKPEDTAVYYCGAADPMGLGYGLGPRPVDRLLSAECDYWGQGTQVTVSS
In the experiment with human serum albumin [2], B8 had a Kd of 1.09 nM, a koff of 9.79e-05 s⁻¹ and a kon of 93500 M⁻¹ s⁻¹. The “ELISA affinity (LogIC50 (oD450nm))” value with human serum albumin [1] turned out to be 5.62.

B9: H4 (VHH)
VHH: HVQLVESGGGLVQTGGSLRLACAASGRAFSTYAMGWFRQAPGKEREFVASINRSGSSTYYADSVKGRFTISRDNGKDTVYLQMNRLIPEDTAVYYCAADSEGVGFRNMLEYDYWGQGTQVTVSS
B9: in the experiment with human serum albumin [2], the Kd amounted to 0.266 nM, the koff is 0.000264 s⁻¹ and the on-rate constant (kon) stood at 992000 M⁻¹ s⁻¹. For the same molecule, the “ELISA affinity (LogIC50 (oD450nm))” value with human serum albumin [1] stood at 5.4.

B10: H30 (VHH)
VHH: HVQLVESGGGLAQAGGSLRLSCAASGGTFSNSCMGWFRQAPGMEREFVAIIRSTGHTTYADSVEGRFTVSRDIAKNTVYLEMNSLKPEDTAVYSCVAGVSDYGCYRTSGIKYWGQGTQVTVSS
In the experiment with human serum albumin [2], B10 had a Kd of 0.164 nM, a koff of 0.000168 s⁻¹ and an association rate constant (kon) of 1.03e+06 M⁻¹ s⁻¹. Also, the “ELISA affinity (LogIC50 (oD450nm))” value with human serum albumin [1] is 5.89.

B11: H15 (VHH)
VHH: QVQLVESGGGLVQAGDSLRLSCAASERTSNYAMGWFRQAPGKEREFVADINHTGGRRKYGDSVKGRFTISRDNAENMVYLQMNNLQVEDTAVYYCATGLRYDVSGYAPDYRYWGRGTQVTVSS
For B11, the binding result with human serum albumin [1] was “no binding (tested: Nb titrated from 10 µM)”.

B12: P2 (VHH)
VHH: DVQLVESGGGLVQAGGSLRLSCAASGHTFSSYTMGWFHQAPGKEREFVAEISGTGGNTGYADSVKGRFTISRDNAKNTVYLQMNSLKPEDTAVYYCAAVIGSPTDSSDYRSSLDYDYWGQGTQVTVSE
For the molecule B12, the binding result in the experiment with MBP-PDZ fusion protein is recorded as “binds”.

B13: P3 (VHH)
VHH: DVQLVESGGGLVQAGGSLRLSCAASGRTFSSYTMGWFHQAPGKEREFVAEIGGTGGNTGYADSVKGRFTISRDNAKNTVYLQMNSLKPEDTAVYYCAAVIGSPTDSSDYRSSLDYDYWGQGTQVTVSE
Consider B13, for which the binding result in the experiment with MBP-PDZ fusion protein is on record as “binds”.

B14: P6 (VHH)
VHH: HVQLVESGGGLVQAGGSLRLSCAASGRTFSRYTMGWFHQAPGKEREFVAEISGTGGNTGYADSVKGRFTMSRDNAKNTVYLQMNSLKPEDTGVYYCAAVIGSPTDSSDYRSSLDYDYWGQGTQVTVSE
In the case of B14, the binding result with MBP-PDZ fusion protein is listed as “binds”.

B15: H16 (VHH)
VHH: QVQLVESGGGLVQTGGSLTLSCAASGRTFSTKSMGWFRQAPGKEREFVADINWNGGITHYADSVEGRFTISRDNANDMVYLQMNSLKPEDTAVYYCAGGRYSTLFSKSEADYDYWGQGTQVTVSS
In the experiment with human serum albumin [2], B15 returned an equilibrium dissociation constant (Kd) of 0.0862 nM, a koff of 0.000116 s⁻¹ and a kon of 1.34e+06 M⁻¹ s⁻¹. The “ELISA affinity (LogIC50 (oD450nm))” value with human serum albumin [1] was 5.99.

B16: H24 (VHH)
VHH: QVQLVESGGGLVQAGGSLRLSCVSSGRTYRWNAMGWFRQAPGKEREFVAAIDWDGRNTDYADSVKGRFTISRDNAKNTVYLQMNSLKVEDTAIYYCAAREWGSGGYSSIASYAYWGQGTQVTVSS
In the case of B16, the binding result in the experiment with human serum albumin [1] is reported as “no binding (tested: Nb titrated from 10 µM)”.

B17: P1 (VHH)
VHH: DVQLVESGGGLVQPGGSLRLSCAASGFTLDDYAIGWFRQAPGKEREGVSCISSHGSTYYADSVKGRFTISRDNVKNTLYLQMNSLKPEDTALYYCAASYYSDYEVAVCRSDALDAWGQGTQVTVSE
Regarding B17, the binding result in the experiment with MBP-PDZ fusion protein is “binds”.

B18: P15 (VHH)
VHH: QVQLVESGGGLVQAGGSLRLSCVASGRPFSSLDMGWFRQRPGKERDVVATINWTGDSTYYLDSVKGRFTISRDNAKNTVFLQMNSLKPEDTAVYYCAARGGGSSVDSEYDVGEFEYDYWGQGTQVTVSS
Turning to B18, the binding result with MBP-PDZ fusion protein was “binds”.

B19: H35 (VHH)
VHH: EVQLVESGGGLVQAGGSLRVSCAVSGISIYHSGWYRQAPGKERELVAGISRGGSTNYADSVKGRFTISRDSGENTVYLQMNSLKPEDTAVYYCKIDWDYRGVSQTAWGQGTQVTVSS
As for B19, in the experiment with human serum albumin [1], the binding result is reported as “no binding (tested: Nb titrated from 10 µM)”.

B20: H2 (VHH)
VHH: QVQLVESGGGLVQAGGSLRLSCTASGRTFTPYTIGWFRQAPGKEREFVASILWSGINTDYADSVKGRFAISRDNAKNAAYLQMSNLKPEDTAVYYCATGGGLGYYRSVSQYDYWGQGTQVTVSE
On to B20, for which, in the experiment with human serum albumin [2], the affinity, expressed as Kd, was 0.17 nM; the koff was determined as 3.99e-05 s⁻¹; the kon amounted to 234000 M⁻¹ s⁻¹. Also, in the experiment with human serum albumin [1], the “ELISA affinity (LogIC50 (oD450nm))” value amounted to 5.88.

B21: H28 (VHH)
VHH: DVQLVESGGGLAQAGGSLRLSCAASGRTFSNECMGWFRQAPGKEREFVATIRSTGHISYATSVQGRFTVSRDIAKNTVYLEMNNLKPEDTAVYSCGAGVSDYGCYRTSGYNYWGQGTQVTVSS
notes: also called N28
Regarding B21, in the experiment with human serum albumin [2], the Kd turned out to be 1.66 nM, the koff is 0.00868 s⁻¹ and the kon turned out to be 5.24e+06 M⁻¹ s⁻¹. For the same molecule, in the experiment with human serum albumin [1], the “ELISA affinity (LogIC50 (oD450nm))” value worked out at 5.12.

B22: H18 (VHH)
VHH: EVQLVESGGGLVQAGGSLRLSCTASGPKDTPYTMGWFRQVPGKEREFVASVLWSGINTDYADSVKGRFAISRNNAKNTMYLQMNSLKPEDTAVYYCAAGYGLGFYRSISQYDYWGHGTQVTVSS
Regarding B22, in the experiment with human serum albumin [2], binding was put at a Kd of 0.502 nM, the koff was 8.71e-05 s⁻¹ and the kon amounted to 171000 M⁻¹ s⁻¹. The “ELISA affinity (LogIC50 (oD450nm))” value with human serum albumin [1] was found to be 5.65.

B23: H20 (VHH)
VHH: EVQLVESGGGLVQAGGSLRLSCTASGPKDTPYTMGWFRQVPGKEREFVASVLWSGINTDYADSVKGRFAISRNNAKNTMYLQMNSLKPEDTAVYYCAAGYGLGFYRTVSQYDYWGHGTQVTVSS
Turning to B23, in the experiment with human serum albumin [2], the Kd is 0.247 nM, the koff was 3.8e-05 s⁻¹ and the kon stood at 154000 M⁻¹ s⁻¹. Further, the “ELISA affinity (LogIC50 (oD450nm))” value in the experiment with human serum albumin [1] stood at 5.76.

B24: P5 (VHH)
VHH: DVQLVESGGGLVQAGDSLRLSCAASGITFRWYTMAWFRQAPGKERDFVATINWSGSDTNYADSVKGRFTISRDNAKNTVTLQMNSLQPEDTAVYYCAGVPGTSLSGETDPRDYDYWGQGTQVTVSE
With B24, the binding result in the experiment with MBP-PDZ fusion protein was “binds”.
